We go through one substance from patent CN112980851A.

This assay concerns the target CD20 (UniProt P11836). Put plainly: cell-based or functional assay.
Sequence of UniProt P11836 (P11836 whole entry): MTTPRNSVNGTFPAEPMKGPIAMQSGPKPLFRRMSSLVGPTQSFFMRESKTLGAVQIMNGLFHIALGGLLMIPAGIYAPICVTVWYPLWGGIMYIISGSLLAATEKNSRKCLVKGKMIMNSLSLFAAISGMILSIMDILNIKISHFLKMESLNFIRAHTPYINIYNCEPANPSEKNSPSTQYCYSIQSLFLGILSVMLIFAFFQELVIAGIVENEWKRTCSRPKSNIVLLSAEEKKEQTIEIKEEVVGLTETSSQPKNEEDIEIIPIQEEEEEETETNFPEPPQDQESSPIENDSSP

Regarding Rituximab (antibody), the ADCC on Raji cells with NK92MI-CD16a effector cells (LDH release), EC50(ng/mL) is 0.607 ng/mL and the CDC on Raji cells with human serum complement (LDH release), EC50(ng/mL) came out at 210 ng/mL.
